Reference: patent US20250002543A1

Assays:
[1] = target: immunoglobulin immobilized on IgG Sepharose 6 Fast Flow (manufactured by Cytiva); assay: IgG Sepharose 6 Fast Flow column; linear gradient 0.1 M citrate pH 6.5 to pH 2.2; pH at the peak of the eluted binding protein
[2] = target: human PCSK9 antibody containing human κ light chain subgroup 4 (Vκ4) (manufactured by R&D Systems); assay: ELISA; antibody immobilised (10 ug/mL), binding protein at 50 ug/mL, Anti-6-His detection, blank-subtracted
[3] = target: Herceptin containing human κ light chain subgroup 1 (Vκ1) (manufactured by Chugai Pharmaceutical Co., Ltd.); assay: as above
[4] = target: human CTLA4 antibody containing human κ light chain subgroup 3 (Vκ3) (manufactured by R&D Systems); assay: as above
[5] = target: human PDGF R alpha antibody containing human κ light chain subgroup 3 (Vκ3) (manufactured by R&D Systems); assay: as above
[6] = target: Herceptin containing human κ light chain subgroup 1 (Vκ1) (manufactured by Chugai Pharmaceutical Co., Ltd.); assay: ELISA; antibody immobilised, binding protein added, Anti-6-His detection (method of Example 21(4))
[7] = target: human CTLA4 antibody containing human κ light chain subgroup 3 (Vκ3) (manufactured by R&D Systems); assay: as above
[8] = target: human antibody (gamma globulin preparation, manufactured by The Chemo-Sero-Therapeutic Research Institute) (human); assay: ELISA; human gamma globulin immobilised, alkali-untreated protein extract, Anti-6-His detection
[9] = target: Herceptin containing human κ light chain subgroup 1 (Vκ1) (manufactured by Chugai Pharmaceutical Co., Ltd.); assay: ELISA; Herceptin immobilised, binding protein at 2 ug/mL, dissociation with 0.05 M citric acid pH 2.4 for 2 min, absorbance ratio to wells without dissociation

B1: FpL_C4KR (designed binder)
chain: ETPEEPREEVTIRVNLIFADGRTQTAEFRGTFEEATAEAYRYADLLARVNGEYTADLEDGGYTINIRFAGHHHHHH
Q: How did the Elution pH [1] turn out when B1 was run?
A: Its Elution pH is 2.8 pH.

Q: And the Polyclonal antibody-binding activity (abs@450 nm) [2]?
A: The Polyclonal antibody-binding activity (abs@450 nm) was 0.55 abs@450 nm.

Q: And the Polyclonal antibody-binding activity (abs@450 nm) [3]?
A: The Polyclonal antibody-binding activity (abs@450 nm) was 0.65 abs@450 nm.

Q: What about the Polyclonal antibody-binding activity (abs@450 nm) [4] of the same binder?
A: Its Polyclonal antibody-binding activity (abs@450 nm) is 0.66 abs@450 nm.

Q: What about the Polyclonal antibody-binding activity (abs@450 nm) [5] of the same binder?
A: The Polyclonal antibody-binding activity (abs@450 nm) was 0.59 abs@450 nm.

B2: FpL_C3KR (designed binder)
chain: ETPEEPREEVTIRVNLIFADGRIQTAEFRGTFEEATARAYAYANLLARENGEYTADLEDGGNTINIRFAGHHHHHH
Q: With B2 as the binder, how does the Polyclonal antibody-binding activity (abs@450 nm) [6] read?
A: The Polyclonal antibody-binding activity (abs@450 nm) was 0.86 abs@450 nm.

Q: What about the Polyclonal antibody-binding activity (abs@450 nm) [7] of the same binder?
A: The Polyclonal antibody-binding activity (abs@450 nm) was 0.07 abs@450 nm.

Q: What about the Polyclonal antibody-binding activity (abs@450 nm) [2] of the same binder?
A: Its Polyclonal antibody-binding activity (abs@450 nm) is 0.77 abs@450 nm.

Q: What about the Polyclonal antibody-binding activity (abs@450 nm) [3] of the same binder?
A: The Polyclonal antibody-binding activity (abs@450 nm) was 0.92 abs@450 nm.

Q: And the Polyclonal antibody-binding activity (abs@450 nm) [4]?
A: Its Polyclonal antibody-binding activity (abs@450 nm) is 0.32 abs@450 nm.

Q: What about the Polyclonal antibody-binding activity (abs@450 nm) [5] of the same binder?
A: Its Polyclonal antibody-binding activity (abs@450 nm) is 0.21 abs@450 nm.

B3: FpL_C3KX 3a (designed binder)
chain: ETPEEPAEEVTIRVNLIFADGQIQTAEFIGTFEEATARAYAYANLLAREYGGYTADLEDGGYTINIRFAGHHHHHH
Q: What does the source list for B3?
A: Polyclonal antibody-binding activity (abs@450 nm) [2]: 0.76 abs@450 nm; Polyclonal antibody-binding activity (abs@450 nm) [3]: 0.87 abs@450 nm; Polyclonal antibody-binding activity (abs@450 nm) [4]: 0.21 abs@450 nm; Polyclonal antibody-binding activity (abs@450 nm) [5]: 0.12 abs@450 nm

B4: FpL_C3KX 4h (designed binder)
chain: ETPEEPAEEVTIRVNLIFADGQIQTAEFIGTFEEATARAYAYANLLARDYGGYTADLEDGGYTINIRFAGHHHHHH
Q: How did the Polyclonal antibody-binding activity (abs@450 nm) [2] turn out when B4 was run?
A: The Polyclonal antibody-binding activity (abs@450 nm) was 0.62 abs@450 nm.

Q: What about the Polyclonal antibody-binding activity (abs@450 nm) [3] of the same binder?
A: The Polyclonal antibody-binding activity (abs@450 nm) was 0.69 abs@450 nm.

Q: And the Polyclonal antibody-binding activity (abs@450 nm) [4]?
A: The Polyclonal antibody-binding activity (abs@450 nm) was 0.63 abs@450 nm.

Q: What about the Polyclonal antibody-binding activity (abs@450 nm) [5] of the same binder?
A: Its Polyclonal antibody-binding activity (abs@450 nm) is 0.56 abs@450 nm.

B5: FpL_C3 2a (designed binder)
chain: ETPEEPKEEVTIKVNLIFADGKIQTAEFKGTFEEATAKAYAYANLLAKEYGGYTADLEDGGNTINIKFAGHHHHHH
Q: How did the Antibody-binding activity (absorbance) (absorbance (450 nm)) [8] turn out when B5 was run?
A: Its Antibody-binding activity (absorbance) (absorbance (450 nm)) is 0.72.

B6: FpL_C3 4f (designed binder)
chain: ETPEEPKEEVTIKVNLIFADGKIQTAEFKGTFEEATAKAYAYADLLAKEYGVYTADLEDGGYTINIKFAGHHHHHH
Q: Which Antibody-binding activity (absorbance) (absorbance (450 nm)) [8] does the source give for B6 here?
A: Its Antibody-binding activity (absorbance) (absorbance (450 nm)) is 0.9.

B7: FpL_C3 5c (designed binder)
chain: ETPEEPKEEVTIKVNLIFADGKIQTAEFKGTFEEATAKAYAYAGLLAKVYGVYTADLEDGGYTINIKFAGHHHHHH
Q: For B7, which Antibody-binding activity (absorbance) (absorbance (450 nm)) [8] is on record?
A: The Antibody-binding activity (absorbance) (absorbance (450 nm)) was 0.74.

B8: FpL_C3KX 6a (designed binder)
chain: ETPGEPAEEVTIRVNLIFADGRIQTAEFIGTFEEATARAYAYANLLARDYGDFTADLEDGGYTINIRFAGHHHHHH
Q: For B8, which Elution rate [%] [9] is on record?
A: Its Elution rate [%] is 25%.

B9: FpL_C3KX 7b (designed binder)
chain: ETPGEPAEEVTIRVNLIFADGRIQTARFIGTFEEATARAYAYANLLARDYGDFTADLEDGGYTINIRFAGHHHHHH
Q: How did the Elution rate [%] [9] turn out when B9 was run?
A: The Elution rate [%] was 61%.

B10: FpL_C3KX 7c (designed binder)
chain: ETPGEPAEEVTIRVNLIFADGRIQTAEFIGTFEEATARAYAYANLLRRDYGDFTADLEDGGYTINIRFAGHHHHHH
Q: Which Elution rate [%] [9] does the source give for B10 here?
A: The Elution rate [%] was 59%.

B11: FpL_C3KX 5e (designed binder)
chain: ETPEEPAEEVTIRVNLIFADGRIQTAEFIGTFEEATARAYAYANLLARDYGGFTADLEDGGYTINIRFAGHHHHHH
Q: What does the source list for B11?
A: Polyclonal antibody-binding activity (abs@450 nm) [6]: 0.96 abs@450 nm; Polyclonal antibody-binding activity (abs@450 nm) [7]: 0.06 abs@450 nm

B12: FpL_C3 5d (designed binder)
chain: ETPEEPKEEVTIKVNLIFADGKIQTAEFKGTFEEATAKAYAYAGLLAKVSGVYTADLEDGGYTINIKFAGHHHHHH
Q: For B12, which Antibody-binding activity (absorbance) (absorbance (450 nm)) [8] is on record?
A: Its Antibody-binding activity (absorbance) (absorbance (450 nm)) is 0.46.

B13: FpL_C3KX_5e_P6S (designed binder)
chain: ETPEESAEEVTIRVNLIFADGRIQTAEFIGTFEEATARAYAYANLLARDYGGFTADLEDGGYTINIRFAGHHHHHH
Q: B13 was tested. Which Polyclonal antibody-binding activity (abs@450 nm) [6] did it give?
A: Its Polyclonal antibody-binding activity (abs@450 nm) is 0.98 abs@450 nm.

Q: What about the Polyclonal antibody-binding activity (abs@450 nm) [7] of the same binder?
A: The Polyclonal antibody-binding activity (abs@450 nm) was 0.78 abs@450 nm.
